Results: patent US20250276081A1, “Mucin-Active Proteases and Methods of Use” (priority 2022, published 2025)

Columns and labels:
[1] = tested on: MCF10A cells expressing MUC1 ectodomain; assay: MCF10A^MUC1 suspension survival assay; format: cell-based
Description: MCF10A^MUC1 suspension survival assay. MCF10A cells expressing a cytoplasmic truncation 5 of MUC1 (MUC1ΔCT, also referred to as MUC1 ectodomain) were used to limit any possible cytoplasmic signaling^1. MUC1ΔCT was induced with 200 ng/ml doxycycline for 24 h. Uninduced and induced cells were seeded at 3×10^5 cells/well in a 24-well ultra-low attachment plate (Corning) in 0.75 mL of complete media. 200 ng/mL doxycycline and 10 nM StcE were added as appropriate. The plate was incubated at 37° C., 5% CO2, 125 rpm. At t=0, 24, 48, and 72 h, cells were spun down at 350×g for 5 min, resuspended in 200 μL of phosphate-buffered saline (PBS) with 0.1% benzonase (Sigma-Aldrich), and incubated at room temperature for 15 min. Cells were then resuspended in 200 μL of enzyme-free cell dissociation buffer (Thermo Fisher Scientific) and stained with 100 nM Calcein AM (Thermo Fisher Scientific) and 5 nM Sytox Red Dead Cell Stain (Thermo Fisher Scientific) for 20 min at 4° C., prior to analysis using a BD Accuri C6 plus. Videos of MCF10A^MUC1 cells freshly seeded on standard tissue culture plates (Corning) and treated with and without 1 nM StcE were generated with images taken at 30 min intervals for 18 h using an Incucyte. The Incucyte was set to 37° C. and 5% CO2, and cells were incubated in complete media with 200 ng/ml doxycycline.

[2] = Complete blood count (CBC) after StcE injection; format: in vivo, mouse; settings: 3 h, C57BL/6, n=1
Description: In vivo toxicity studies. 10-week-old C57BL/6 mice (bred in-house) were injected with PBS or StcE (0.15 mg/kg or 15 mg/kg) via intravenous injection. 9-week-old female BALB/cJ mice (Jackson Labs) were injected with PBS or 10 mg/kg αHER2-eStcE via intraperitoneal injection. Mice were submitted to the Animal Diagnostic Lab at Stanford University for necropsy and complete blood count (CBC) analyses 3 h post injection.

[3] = tested on: mucins in plasma and tissues; assay: In vivo mucin degradation Western blot after StcE; design: species or system mouse; settings: 0.25 mg/kg
[4] = molecular target: T1, cell surface MUC1 on HeLa cells (Homo sapiens, UniProt P15941); assay: In cellulo MUC1 cleavage activity assay; format: cell-based
T1 construct: subjected to flow cytometry for cell surface MUC1; endogenous in cells; host or cells: HeLa
Description: Combinations of domain deletions and single point mutations yielded a total of eleven mutants for characterization, with expression yields ranging from 20-100 mg/L (Methods and FIG. 15B). In vitro activity against recombinant mucin substrates was quantified by densitometry following SDS-PAGE (FIG. 2b-c and FIG. 15C). […] To determine effective dissociation constants (Kd) of the mutants, cells were treated with the same concentrations of enzymes for 30 mins at 4° C. in the presence of the metal chelator and metalloprotease inhibitor EDTA, to prevent enzyme activity. In the latter case, binding was quantified via interaction of an anti-His tag antibody with the His-tagged mutants (FIG. 2d,g-h and FIG. 15f-g).
In cellulo MUC1 cleavage activity assay. Hela cells resuspended at 4.5-5.0×10^5 cells in 150 μL of complete media were allocated per well to a 96-well ultra-low attachment round bottom plate (Corning). 50 μL of the different StcE mutants in PBS were added to the wells, and the plate was incubated at 37° C. for 1 h. […] For data analysis, the Alexa Fluor 647 mean fluorescence intensity of unstained and PBS-treated samples were used to define 0% and 100% cell surface MUC1, respectively, and each sample was normalized to percent MUC1 within each replicate. […]

T1 sequence (P15941 24-1255): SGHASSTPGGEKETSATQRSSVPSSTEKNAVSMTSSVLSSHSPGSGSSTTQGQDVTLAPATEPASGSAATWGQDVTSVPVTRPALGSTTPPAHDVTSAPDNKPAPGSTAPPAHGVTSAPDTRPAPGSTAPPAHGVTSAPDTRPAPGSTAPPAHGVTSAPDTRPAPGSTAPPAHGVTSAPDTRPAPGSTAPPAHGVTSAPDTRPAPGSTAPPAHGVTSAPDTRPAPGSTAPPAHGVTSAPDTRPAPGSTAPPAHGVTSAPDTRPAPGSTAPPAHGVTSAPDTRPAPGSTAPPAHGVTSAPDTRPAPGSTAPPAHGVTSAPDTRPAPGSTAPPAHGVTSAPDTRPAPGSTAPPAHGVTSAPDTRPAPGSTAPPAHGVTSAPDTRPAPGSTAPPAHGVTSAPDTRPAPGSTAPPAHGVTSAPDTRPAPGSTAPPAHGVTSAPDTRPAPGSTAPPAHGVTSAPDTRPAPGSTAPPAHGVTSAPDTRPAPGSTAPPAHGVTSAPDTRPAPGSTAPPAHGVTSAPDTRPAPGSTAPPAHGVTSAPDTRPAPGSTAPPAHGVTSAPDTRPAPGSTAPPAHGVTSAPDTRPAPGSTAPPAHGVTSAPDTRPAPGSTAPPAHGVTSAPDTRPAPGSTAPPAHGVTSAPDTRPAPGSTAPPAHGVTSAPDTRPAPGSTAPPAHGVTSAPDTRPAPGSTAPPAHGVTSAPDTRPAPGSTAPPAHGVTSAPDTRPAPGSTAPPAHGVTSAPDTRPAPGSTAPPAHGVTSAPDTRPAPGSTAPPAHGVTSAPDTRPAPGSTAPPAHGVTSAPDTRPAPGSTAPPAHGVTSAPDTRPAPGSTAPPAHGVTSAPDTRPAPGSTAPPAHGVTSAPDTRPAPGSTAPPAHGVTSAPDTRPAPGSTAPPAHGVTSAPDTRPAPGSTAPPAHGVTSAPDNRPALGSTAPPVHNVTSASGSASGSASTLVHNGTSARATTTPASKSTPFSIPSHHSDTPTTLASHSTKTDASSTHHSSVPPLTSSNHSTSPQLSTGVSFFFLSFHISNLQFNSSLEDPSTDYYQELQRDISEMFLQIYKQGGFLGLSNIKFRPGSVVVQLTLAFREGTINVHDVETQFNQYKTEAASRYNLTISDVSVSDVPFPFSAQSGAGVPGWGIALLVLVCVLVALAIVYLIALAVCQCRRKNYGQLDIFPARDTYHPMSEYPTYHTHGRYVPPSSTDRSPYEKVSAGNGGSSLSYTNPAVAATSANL

For “StcE: secreted protease of C1 esterase inhibitor, zinc metalloprotease pan mucinase from E. coli O157:H7; SEQ ID NO:1”, the “Viability of MUC1-overexpressing cells under anchorage-free conditions” value ([1]; 10 nM StcE, ultralow attachment plates, over 72 h) was “rapid cell death”, the “Toxicity to MUC1-expressing cells in standard tissue culture plates” value ([1]; nanomolar doses (1 nM StcE)) was “low toxicity” and the Basophil absolute ([2]; StcE 0.15 mg/kg I.V.) was 0. For the same substance, the Basophils ([2]; StcE 0.15 mg/kg I.V.) was 0%, the Eosinophil absolute ([2]; StcE 0.15 mg/kg I.V.) was 44 and the Eosinophils ([2]; StcE 0.15 mg/kg I.V.) was 1%. For the same substance, the “Hematocrit (HCT)” value ([2]; StcE 0.15 mg/kg I.V.) was 45.5%, the “Hemoglobin (HGB)” value ([2]; StcE 0.15 mg/kg I.V.) was 14 gm/dL and the “Immature reticulocyte fraction (IRF)” value ([2]; StcE 0.15 mg/kg I.V.) was 54.9%. The “Low fluorescence reticulocytes (LFR)” value ([2]; StcE 0.15 mg/kg I.V.) was 45.1%, the Lymphocyte absolute ([2]; StcE 0.15 mg/kg I.V.) was 4085 and the Lymphocytes ([2]; StcE 0.15 mg/kg I.V.) was 92%. For the same substance, the “MHC concentration (MCHC)” value ([2]; StcE 0.15 mg/kg I.V.) was 30.8 g/dL, the “Mean corpuscular hemoglobin (MCH)” value ([2]; StcE 0.15 mg/kg I.V.) was 14.3 pg and the “Mean corpuscular volume (MCV)” value ([2]; StcE 0.15 mg/kg I.V.) was 46.5 fL. For the same substance, the “Mean platelet volume (MPV)” value ([2]; StcE 0.15 mg/kg I.V.) was 7.3 fL, the “Medium fluorescence reticulocytes (MFR)” value ([2]; StcE 0.15 mg/kg I.V.) was 18.7% and the Monocyte absolute ([2]; StcE 0.15 mg/kg I.V.) was 133. It also gave a Monocytes ([2]; StcE 0.15 mg/kg I.V.) of 3%, a Neutrophil absolute ([2]; StcE 0.15 mg/kg I.V.) of 178 and a Neutrophils ([2]; StcE 0.15 mg/kg I.V.) of 4%. The Platelet count ([2]; StcE 0.15 mg/kg I.V.) was 1345 K/μL, the “Platelet distribution width (PDW)” value ([2]; StcE 0.15 mg/kg I.V.) was 8.9 fL and the Platelet estimate ([2]; StcE 0.15 mg/kg I.V.) was “Adequate”. The “Platelet-large cell ratio (P-LCR)” value ([2]; StcE 0.15 mg/kg I.V.) was 8.7%, the RBC morphology ([2]; StcE 0.15 mg/kg I.V.) was “Normal” and the “Red blood cell (RBC)” value ([2]; StcE 0.15 mg/kg I.V.) was 9.78 M/μL. For the same substance, the “Red cell distribution width (RDW)” value ([2]; StcE 0.15 mg/kg I.V.) was 19.2%, the Reticulocyte absolute ([2]; StcE 0.15 mg/kg I.V.) was 442056 µL⁻¹ and the Reticulocyte count ([2]; StcE 0.15 mg/kg I.V.) was 4.52%. The “White blood cell (WBC)” value ([2]; StcE 0.15 mg/kg I.V.) was 4.44 K/μL, the Basophil absolute ([2]; StcE 15 mg/kg I.V.) was 0 and the Basophils ([2]; StcE 15 mg/kg I.V.) was 0%. For the same substance, the Eosinophil absolute ([2]; StcE 15 mg/kg I.V.) was 39, the Eosinophils ([2]; StcE 15 mg/kg I.V.) was 1% and the “Hematocrit (HCT)” value ([2]; StcE 15 mg/kg I.V.) was 58.9%. For the same substance, the “Hemoglobin (HGB)” value ([2]; StcE 15 mg/kg I.V.) was 18.3 gm/dL, the “Immature reticulocyte fraction (IRF)” value ([2]; StcE 15 mg/kg I.V.) was 52.3% and the “Low fluorescence reticulocytes (LFR)” value ([2]; StcE 15 mg/kg I.V.) was 47.7%. For the same substance, the Lymphocyte absolute ([2]; StcE 15 mg/kg I.V.) was 1458, the Lymphocytes ([2]; StcE 15 mg/kg I.V.) was 37% and the “MHC concentration (MCHC)” value ([2]; StcE 15 mg/kg I.V.) was 31.1 g/dL. The “Mean corpuscular hemoglobin (MCH)” value ([2]; StcE 15 mg/kg I.V.) was 14 pg, the “Mean corpuscular volume (MCV)” value ([2]; StcE 15 mg/kg I.V.) was 44.9 fL and the “Mean platelet volume (MPV)” value ([2]; StcE 15 mg/kg I.V.) was 6.8 fL. For the same substance, the “Medium fluorescence reticulocytes (MFR)” value ([2]; StcE 15 mg/kg I.V.) was 28%, the Monocyte absolute ([2]; StcE 15 mg/kg I.V.) was 315 and the Monocytes ([2]; StcE 15 mg/kg I.V.) was 8%. For the same substance, the Neutrophil absolute ([2]; StcE 15 mg/kg I.V.) was 2128, the Neutrophils ([2]; StcE 15 mg/kg I.V.) was 54% and the Platelet count ([2]; StcE 15 mg/kg I.V.) was 82 K/μL. For the same substance, the “Platelet distribution width (PDW)” value ([2]; StcE 15 mg/kg I.V.) was 7.2 fL, the Platelet estimate ([2]; StcE 15 mg/kg I.V.) was “Decreased” and the “Platelet-large cell ratio (P-LCR)” value ([2]; StcE 15 mg/kg I.V.) was 5.5%. The RBC morphology ([2]; StcE 15 mg/kg I.V.) was “Normal”, the “Red blood cell (RBC)” value ([2]; StcE 15 mg/kg I.V.) was 13.11 M/μL and the “Red cell distribution width (RDW)” value ([2]; StcE 15 mg/kg I.V.) was 22.2%. The Reticulocyte absolute ([2]; StcE 15 mg/kg I.V.) was 860016 µL⁻¹, the Reticulocyte count ([2]; StcE 15 mg/kg I.V.) was 6.56% and the “White blood cell (WBC)” value ([2]; StcE 15 mg/kg I.V.) was 3.94 K/μL. For the same substance, the “Digestion of mucins in plasma and tissues” value [3] was “digested mucins throughout the body” and the “Concentration at which the enzyme is active” value [4] was “single digit nanomolar”.
